Patent US20030186868A1 (Regeneron, published 2003)
Read-outs that look alike come from different tables or passages of the source. Bridge positions count the residues as written; N and C are the ends. Ends that are not written are not given here.

Tests used:
[1] = molecular target: human Neuropilin-1 (hNP-1) (human) (UniProt O14786); test: 125I-VEGF165 competition, whole COS-1 cells
[2] = molecular target: human vascular endothelial growth factor receptor-2 (hVEGFR-2) (human) (UniProt P35968); test: 125I-VEGF165 competition, whole COS-1 cells
Chain of human vascular endothelial growth factor receptor-2 (hVEGFR-2) (human) (P35968 20-1356): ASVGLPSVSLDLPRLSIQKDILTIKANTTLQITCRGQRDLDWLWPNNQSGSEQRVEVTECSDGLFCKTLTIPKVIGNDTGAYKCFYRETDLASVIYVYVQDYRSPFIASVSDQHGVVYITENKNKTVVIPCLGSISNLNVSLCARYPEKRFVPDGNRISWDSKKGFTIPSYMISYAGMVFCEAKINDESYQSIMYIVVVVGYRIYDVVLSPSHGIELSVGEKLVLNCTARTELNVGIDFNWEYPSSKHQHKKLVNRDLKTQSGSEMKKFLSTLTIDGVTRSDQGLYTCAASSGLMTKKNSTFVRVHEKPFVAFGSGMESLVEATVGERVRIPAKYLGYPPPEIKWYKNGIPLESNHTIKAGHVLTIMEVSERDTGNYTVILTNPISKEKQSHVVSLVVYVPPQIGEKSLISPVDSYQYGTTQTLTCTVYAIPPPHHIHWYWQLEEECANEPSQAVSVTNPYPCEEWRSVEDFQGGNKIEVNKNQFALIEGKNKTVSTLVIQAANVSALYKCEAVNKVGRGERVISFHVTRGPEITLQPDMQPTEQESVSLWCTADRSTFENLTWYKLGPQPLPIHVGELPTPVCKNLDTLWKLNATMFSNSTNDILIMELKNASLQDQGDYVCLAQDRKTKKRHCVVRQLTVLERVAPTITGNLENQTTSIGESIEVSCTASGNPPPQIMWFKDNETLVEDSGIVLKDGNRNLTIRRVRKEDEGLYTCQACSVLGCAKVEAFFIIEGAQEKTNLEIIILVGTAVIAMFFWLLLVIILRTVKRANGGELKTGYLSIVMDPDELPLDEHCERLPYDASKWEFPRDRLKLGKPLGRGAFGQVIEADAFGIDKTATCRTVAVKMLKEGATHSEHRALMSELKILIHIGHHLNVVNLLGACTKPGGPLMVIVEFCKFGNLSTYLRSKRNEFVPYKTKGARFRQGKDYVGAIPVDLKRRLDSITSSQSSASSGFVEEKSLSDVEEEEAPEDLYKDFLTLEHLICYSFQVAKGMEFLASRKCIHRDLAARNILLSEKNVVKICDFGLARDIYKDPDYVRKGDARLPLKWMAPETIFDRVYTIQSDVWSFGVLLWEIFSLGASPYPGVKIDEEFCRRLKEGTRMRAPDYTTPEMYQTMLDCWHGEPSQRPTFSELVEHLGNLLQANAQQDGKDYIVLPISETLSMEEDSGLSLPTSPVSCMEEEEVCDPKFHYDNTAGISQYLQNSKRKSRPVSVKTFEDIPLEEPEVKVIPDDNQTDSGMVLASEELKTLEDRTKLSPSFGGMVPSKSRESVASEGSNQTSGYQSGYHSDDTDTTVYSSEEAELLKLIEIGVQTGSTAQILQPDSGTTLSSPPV

[3] = molecular target: VEGFR-2/NP-1 co-receptor complex (cells co-expressing hVEGFR-2 and hNP-1) (human) (UniProt P35968); test: 125I-VEGF165 competition, whole COS-1 cells
Chain of VEGFR-2/NP-1 co-receptor complex (cells co-expressing hVEGFR-2 and hNP-1) (human) (P35968 20-1356, chain 1 of 2): as the sequence (P35968 20-1356) above
Chain of VEGFR-2/NP-1 co-receptor complex (cells co-expressing hVEGFR-2 and hNP-1) (human) (O14786 22-923, chain 2 of 2, further chain): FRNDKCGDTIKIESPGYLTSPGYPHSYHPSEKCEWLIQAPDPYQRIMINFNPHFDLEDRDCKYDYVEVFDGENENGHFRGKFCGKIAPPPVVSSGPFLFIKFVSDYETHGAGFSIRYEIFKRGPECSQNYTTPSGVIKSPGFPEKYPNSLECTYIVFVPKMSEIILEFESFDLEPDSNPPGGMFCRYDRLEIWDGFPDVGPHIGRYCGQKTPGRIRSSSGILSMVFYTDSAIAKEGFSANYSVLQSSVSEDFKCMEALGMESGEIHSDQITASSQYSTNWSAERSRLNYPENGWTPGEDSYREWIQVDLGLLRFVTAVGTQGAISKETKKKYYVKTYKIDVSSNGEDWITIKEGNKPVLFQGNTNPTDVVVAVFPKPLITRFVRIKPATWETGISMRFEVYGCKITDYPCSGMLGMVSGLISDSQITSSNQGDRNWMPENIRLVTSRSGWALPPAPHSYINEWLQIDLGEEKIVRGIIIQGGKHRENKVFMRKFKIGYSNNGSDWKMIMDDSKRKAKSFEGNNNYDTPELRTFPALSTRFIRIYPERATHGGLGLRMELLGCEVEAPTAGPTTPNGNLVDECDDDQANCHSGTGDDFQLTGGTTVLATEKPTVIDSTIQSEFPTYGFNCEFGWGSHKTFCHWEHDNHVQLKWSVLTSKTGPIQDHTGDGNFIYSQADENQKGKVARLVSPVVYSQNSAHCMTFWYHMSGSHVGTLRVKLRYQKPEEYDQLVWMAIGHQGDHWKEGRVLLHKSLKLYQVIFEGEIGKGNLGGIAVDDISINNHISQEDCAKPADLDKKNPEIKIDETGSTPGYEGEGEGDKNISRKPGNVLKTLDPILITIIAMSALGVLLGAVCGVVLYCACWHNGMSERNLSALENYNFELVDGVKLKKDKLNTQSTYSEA

[4] = molecular target: T1, human vascular endothelial growth factor receptor-2 (hVEGFR-2) (human, UniProt P35968 20-1356); test: 125I-VEGF165 competition, whole COS-1 cells
T1 construct: whole, on cells; also called flk-1; FLK-1
T1 sequence (P35968 20-1356): as the sequence (P35968 20-1356) above
Description: (§1) Cells are plated the day before experimentation at 200,000 cells per well in twelve well tissue culture plates (VWR) in 1 ml of growth medium specific for each cell type. On the day of experimentation, the cells were pre-equilibrated at 4° C. for 30 to 60 minutes in binding buffer (0.2% BSA, Sigma; 25 mM Hepes, Gibco; MEM, Gibco). […] The binding reaction is allowed to reach equilibrium for four hours at 4° C. with gentle agitation.
(§2) Unbound ligand is then removed by quickly washing three times with 5 ml ice cold BSA-free binding buffer (MEM, Gibco, 25 mM Hepes, Gibco). Cells are lysed by the addition of 250 μl of RIPS Buffer (previously described), and the lysed cells are transferred to 12×75 mm test tubes and counted using a gamma counter. Generation of competition curves and IC₅₀ values are performed using the Prism software package (Graphpad Software Inc., San Diego, Calif.).

[5] = molecular target: VEGFR-2/NP-1 co-receptor complex (cells co-expressing hVEGFR-2 and hNP-1) (human) (UniProt P35968); test: 125I-VEGF165 competition, whole COS-1 cells; remark: listed apart in the source
[6] = molecular target: T1, human vascular endothelial growth …; test: cell-based or functional assay
[7] = molecular target: T1, human vascular endothelial growth …; test: cell-based or functional assay; remark: listed apart in the source
[8] = molecular target: T1, human vascular endothelial growth …; test: 125I-VEGF165 (287 pM) competition by cold ligand, COS-1 cells overexpressing VEGFR-2
Description: The cells were then rinsed three times with ice cold binding buffer to remove unbound ligand, lysed, and transferred to 12×75 mm test tubes for counting on a gamma counter. The IC₅₀ values were calculated by fitting the data to a four parameter logistic equation (Prism software).

[9] = molecular target: T2, human Neuropilin-1 (hNP-1) (human, UniProt O14786 22-923); test: 125I-VEGF165 competition, whole COS-1 cells
T2 construct: whole, on cells; also called hNeuropilin-1
T2 sequence (O14786 22-923): as the sequence (O14786 22-923, chain 2 of 2, further chain) above
Description: as §1, §2

[10] = molecular target: T3, VEGFR-2/NP-1 co-receptor complex (cells co-expressing hVEGFR-2 and hNP-1) (human, UniProt P35968 20-1356; O14786 22-923); test: 125I-VEGF165 competition, whole COS-1 cells
T3 construct: whole, on cells; All numbers printed for cells co-expressing both receptors are put on this molecule; also called R2 + NP1 Cells; VEGFR-2/NP-1 complex
T3 sequence (P35968 20-1356, chain 1 of 2): as the sequence (P35968 20-1356) above
T3 sequence (O14786 22-923, chain 2 of 2): as the sequence (O14786 22-923, chain 2 of 2, further chain) above

[11] = molecular target: T2, human Neuropilin-1 (hNP-1); test: 125I-VEGF165 competition, whole COS-1 cells; remark: listed apart in the source
[12] = molecular target: T2, human Neuropilin-1 (hNP-1); test: 125I-VEGF165 competition, stable Balb/C 3T3 A31 cells
[13] = molecular target: T3, VEGFR-2/NP-1 co-receptor complex (cells …); test: as above
[14] = molecular target: T2, human Neuropilin-1 (hNP-1); test: 125I-VEGF165 competition by cold VEGF165, whole COS-1 cells
Description: as §1, §2

[15] = molecular target: T2, human Neuropilin-1 (hNP-1); test: saturation binding of 125I-VEGF165, whole COS-1 cells (transient)
Description: as §1, §2

[16] = molecular target: T3, VEGFR-2/NP-1 co-receptor complex (cells …); test: 125I-VEGF165 (201 pM) competition, cells overexpressing VEGFR-2 and NP-1 (FIG. 7)
Description: as §1, §2

Chain of human Neuropilin-1 (hNP-1) (human) (O14786 22-923): as the sequence (O14786 22-923, chain 2 of 2, further chain) above

AGRGARAAEAQRPSDKPRR [P6V8-3NCSA1, 5, 7, 8, 10]
relative affinity to lead peptide (IC50 peptide / IC50 P6V8-3NCS) [1]: 67.8 | relative affinity (IC50 peptide / IC50 VEGF165) [2]: 212000

RRPKGRGKRRREKQRAAAKPRR [AS-4a]
relative affinity to lead peptide (IC50 peptide / IC50 P6V8CS) [2]: 1.9

B1: (cap)P6V8-3NCS (peptide)
peptide: KGRGKRRREKQRPSDKPRR
modifications: not fully specified (N-terminus, C-terminus); also: amino and carboxyl termini capped, caps not given here
relative affinity (IC50 peptide / IC50 VEGF165) [3]: 96200 | binding result [4]: no binding

KGRGKRAAEAQRPSDKPRR [P6V8-3NCSA7, 8, 10]
relative affinity (IC50 peptide / IC50 VEGF165) [2]: 110000

KGRGKRAAEKQAPSDKPRR [P6V8-3NCSA7, 8, 12]
relative affinity (IC50 peptide / IC50 VEGF165) [2]: 6000 | relative affinity (IC50 peptide / IC50 VEGF165) [5]: 36600

B2: VEGF121 (ligand, UniProt P15692-9 27-147, looked up)
chain: APMAEGGGQNHHEVVKFMDVYQRSYCHPIETLVDIFQEYPDEIEYIFKPSCVPLMRCGGCCNDEGLECVPTEESNITMQIMRIKPHQGQHIGEMSFLQHNKCECRPKKDRARQEKCDKPRR
EC50 of VEGF121, VEGFR-2 anti-phosphotyrosine assay in HUVEC, no peptide added [6]: 2.45 nM | EC50 of VEGF121, VEGFR-2 anti-phosphotyrosine assay in HUVEC, with 100 µM P6 [6]: 2.4 nM | EC50 of VEGF121, VEGFR-2 anti-phosphotyrosine assay in HUVEC, with 100 µM P6V8 [6]: 4.07 nM | EC50 of VEGF121, VEGFR-2 anti-phosphotyrosine assay in HUVEC, with 100 µM P6V8-3N [6]: 1.17 nM | EC50 of VEGF121, VEGFR-2 anti-phosphotyrosine assay in HUVEC, with 100 µM P6V8-3N (second row with this label) [6]: 1.62 nM | EC50 of VEGF121, VEGFR-2 anti-phosphotyrosine assay in HUVEC, with 100 µM P6V8-3NCS [6]: 4.57 nM | EC50 of VEGF121, VEGFR-2 anti-phosphotyrosine assay in HUVEC, with 100 µM P6V8-3NCS1-7CC [6]: 3.31 nM | EC50 of VEGF121, VEGFR-2 anti-phosphotyrosine assay in HUVEC, with 100 µM P6V8-3NCSA7, 8, 10, 12 [6]: 17.8 nM | EC50 of VEGF121, VEGFR-2 anti-phosphotyrosine assay in HUVEC, with 100 µM P6V8-3NCSC13C18 [6]: 2.09 nM | Log EC50 of VEGF121, VEGFR-2 anti-phosphotyrosine assay in HUVEC, no peptide added [6]: -8.61 | Log EC50 of VEGF121, VEGFR-2 anti-phosphotyrosine assay in HUVEC, with 100 µM P6 [6]: -8.62 | Log EC50 of VEGF121, VEGFR-2 anti-phosphotyrosine assay in HUVEC, with 100 µM P6V8 [6]: -8.39 | Log EC50 of VEGF121, VEGFR-2 anti-phosphotyrosine assay in HUVEC, with 100 µM P6V8-3N [6]: -8.93 | Log EC50 of VEGF121, VEGFR-2 anti-phosphotyrosine assay in HUVEC, with 100 µM P6V8-3N (second row with this label) [6]: -8.79 | Log EC50 of VEGF121, VEGFR-2 anti-phosphotyrosine assay in HUVEC, with 100 µM P6V8-3NCS [6]: -8.34 | Log EC50 of VEGF121, VEGFR-2 anti-phosphotyrosine assay in HUVEC, with 100 µM P6V8-3NCS1-7CC [6]: -8.48 | Log EC50 of VEGF121, VEGFR-2 anti-phosphotyrosine assay in HUVEC, with 100 µM P6V8-3NCSA7, 8, 10, 12 [6]: -7.75 | Log EC50 of VEGF121, VEGFR-2 anti-phosphotyrosine assay in HUVEC, with 100 µM P6V8-3NCSC13C18 [6]: -8.68 | EC50 of VEGF121 for VEGFR-2 phosphorylation in HUVEC in the presence of 100 µM P6 (FIG. 8) [7]: 2.38 nM | EC50 of VEGF121 for VEGFR-2 phosphorylation in HUVEC in the presence of 100 µM P6V8 (FIG. 8) [7]: 4.04 nM | EC50 of VEGF121 for VEGFR-2 phosphorylation in HUVEC with antagonist P6V8-3NCSC13C18 (FIG. 12) [7]: 2.08 nM | EC50 of VEGF121 for VEGFR-2 phosphorylation in HUVEC, no peptide (FIG. 8) [7]: 1.84 nM | EC50 of VEGF121 for VEGFR-2 phosphorylation in HUVEC, no peptide (FIG. 12) [7]: 2.75 nM | EC50 of VEGF121 for VEGFR-2 phosphorylation in HUVEC, no peptide (FIG. 13) [7]: 3.38 nM | IC50 [8]: 0.312 nM | binding result [9]: no binding

KGRGKRRRECQRPSCKPRR (disulfide 10-15) [P6V8-3NCSC13C18]
binding result [10]: binds | binding result [11]: binds | binding result [4]: no binding

KGRGKRRREKQRPCDKPRR [P6V8-3N]
IC50 [12]: 254 nM

AGRGARRREKQRPSDKPRR [P6V8-3NCSA1A5]
binding result [4]: no binding

AGRGKARREKQRPSDKPRR [P6V8-3NCSA1A6]
binding result [4]: no binding

KGAGARRREKQRPSDKPRR [P6V8-3NCSA3A5]
binding result [4]: no binding

KGAGKARREKQRPSDKPRR [P6V8-3NCSA3A6]
binding result [4]: no binding

RRPKGRGKRRREAAAPSDKPRR (also called NP-1 selective peptide) [AS-4]
binding result [4]: no binding | IC50 [13]: 300 nM | IC50 [12]: 17.8 nM

B3: human recombinant VEGF165 (ligand, UniProt P15692-4 27-191, looked up)
chain: APMAEGGGQNHHEVVKFMDVYQRSYCHPIETLVDIFQEYPDEIEYIFKPSCVPLMRCGGCCNDEGLECVPTEESNITMQIMRIKPHQGQHIGEMSFLQHNKCECRPKKDRARQENPCGPCSERRKHLFVQDPQTCKCSCKNTDSRCKARQLELNERTCRCDKPRR
modifications: 125I-labelled (chloramine T) where used as tracer
IC50 [14]: 0.582 nM | log IC50 [14]: -9.24 | Kd [15]: 2.09 nM | Log Kd [15]: -8.68

RRPKGRGKRRREKQRP (also called P6 peptide; pp6) [P6]
IC50 [16]: 12200 nM

RRPKGRGKRRREKQRPDAVPRR (also called P6P7 peptide) [P6P7]
IC50 [16]: 1170 nM

B4: P6V8 (peptide)
peptide: RRPKGRGKRRREKQRPCDKPRR
notes: synthetic; holds one free cysteine; also called P6V8 parent peptide
binding result [11]: binds

CKGRGKRCREKQRPSDKPRR (disulfide 1-8, also called P6V8-3NCW1-7CC) [P6V8-3NCS1-7CC]
binding result [4]: no binding

AGRGARAAEKQAPSDKPRR [P6V8-3NCSA1, 5, 7, 8, 12]
binding result [4]: no binding

RRPAAAGKRRREKQRPSDKPRR [AS-1]
binding result [4]: no binding

CAGRGKRCREKQRPSDKPRR (disulfide 1-8, also called P6V8-3NCSA-1 7CCA1) [P6V8-3NCS1-7CCA1]
binding result [4]: no binding

CKGRGKRCREKQRPSDKPRR (disulfide 1-8; also: capped amino and carboxyl termini, caps not given here) [(cap)P6V8-3NCS1-7CC]
binding result [10]: no binding | binding result [11]: no binding | binding result [4]: no binding

CAGRGARCREKQRPSDKPRR (disulfide 1-8) [P6V8-3NCS1-7CCA1A5]
binding result [4]: no binding

CKGRGARCREKQRPSDKPRR (disulfide 1-8) [P6V8-3NCS1-7CCA5]
binding result [4]: no binding

RPCDKPRR [V8]
binding result [4]: no binding | binding result [9]: no binding

RPSDKPRR [V8CS]
binding result [4]: no binding

KGRGKRAAEAQAPSDKPRR [P6V8-3NCSA7, 8, 10, 12]
binding result [4]: no binding
